Results published in patent US20190185562A1 (Regeneron, published 2019).

T1: full length (FL) human gp130 over-expressed on HEK293/Stat3-luc/gp130-2X Sort cells (human, UniProt P40189 23-918)
T1 construct: whole, on cells
T1 sequence (looked up): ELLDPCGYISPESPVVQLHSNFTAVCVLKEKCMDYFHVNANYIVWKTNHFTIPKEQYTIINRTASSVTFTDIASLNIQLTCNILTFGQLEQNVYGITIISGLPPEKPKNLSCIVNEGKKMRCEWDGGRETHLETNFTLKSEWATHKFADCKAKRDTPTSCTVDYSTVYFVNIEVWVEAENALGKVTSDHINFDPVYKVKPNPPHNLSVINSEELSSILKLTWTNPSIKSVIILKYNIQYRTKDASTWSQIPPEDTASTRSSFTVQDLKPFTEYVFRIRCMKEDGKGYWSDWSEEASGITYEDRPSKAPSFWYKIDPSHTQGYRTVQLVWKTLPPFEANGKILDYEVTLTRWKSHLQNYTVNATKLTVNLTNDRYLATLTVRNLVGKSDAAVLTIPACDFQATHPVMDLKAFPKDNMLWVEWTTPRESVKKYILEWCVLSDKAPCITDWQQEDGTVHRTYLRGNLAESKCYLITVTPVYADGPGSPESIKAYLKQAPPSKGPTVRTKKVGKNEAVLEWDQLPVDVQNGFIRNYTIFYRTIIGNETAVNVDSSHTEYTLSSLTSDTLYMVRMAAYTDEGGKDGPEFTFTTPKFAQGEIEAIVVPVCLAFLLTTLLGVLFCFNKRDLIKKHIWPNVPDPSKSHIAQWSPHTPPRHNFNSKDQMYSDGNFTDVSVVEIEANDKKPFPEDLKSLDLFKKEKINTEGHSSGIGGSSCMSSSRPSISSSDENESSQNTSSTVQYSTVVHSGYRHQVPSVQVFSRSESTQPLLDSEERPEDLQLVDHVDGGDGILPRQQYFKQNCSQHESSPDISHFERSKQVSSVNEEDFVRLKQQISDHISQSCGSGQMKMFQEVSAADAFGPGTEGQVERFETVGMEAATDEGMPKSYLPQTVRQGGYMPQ

T2: human gp130 expressed endogenously on IMR-32/Stat3-luc cells (human, UniProt P40189 23-918)
T2 construct: whole, on cells
T2 sequence (looked up): T1 sequence (looked up)

B1: MAb16614 (antibody, V domains shown)
VH: QVQLVESGGGVVQPGGSLRLSCAASGFTFSTYDIHWVRQAPGKGLEWVAVISFDGSNRNYGDSVKGRFTISRDNSDNTLFLEMNNLRFEDTAVYYCAKEGYGVDFQHWGQGTLVTVSS
VL: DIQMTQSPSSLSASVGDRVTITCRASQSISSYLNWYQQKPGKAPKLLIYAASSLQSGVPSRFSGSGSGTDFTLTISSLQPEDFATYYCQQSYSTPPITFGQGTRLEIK
notes: Variable domains only
B2: MAb16618 (antibody, V domains shown)
VH: QVQLQESGPGLVKPSETLSLTCTVSGGSISNYYWTWIRQPPGKGLEWIGHISNSGTTNYNPSLKSRVTISVDTSKNQFSLKLTSVTAADTAVYYCARLPLGIAAVDTDYYYYFGMDVWGQGTTVTVSS
VL: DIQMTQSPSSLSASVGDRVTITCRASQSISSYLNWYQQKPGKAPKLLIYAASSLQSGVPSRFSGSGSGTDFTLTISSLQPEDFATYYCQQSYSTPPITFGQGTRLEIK
notes: Variable domains only
B3: MAb16622 (antibody, V domains shown)
VH: EVQLVESGGGVVRPGGSLRLSCTASGFTFDDYGMSWVRQAPGKGLEWVSGINWNGGRTEYADAVKGRFIISRDNAKNSLYLQMNSLRAEDTALYFCARTELRWDYWGQGTLVTVSS
VL: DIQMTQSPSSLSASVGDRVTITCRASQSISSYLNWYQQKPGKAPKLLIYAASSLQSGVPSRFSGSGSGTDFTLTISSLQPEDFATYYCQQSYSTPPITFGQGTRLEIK
notes: Variable domains only
B4: MAb16623 (antibody, V domains shown)
VH: EVQLVESGGGLVQPGGSLRLSCAASGLTFSSYEMNWVRQAPGKGLEWVSHISSAGSTKYYADSVKGRFTISRDNAKNSLFLQMNSLRAEDTAIYYCAGYNYAYYYFGVDVWGQGTTVTVSS
VL: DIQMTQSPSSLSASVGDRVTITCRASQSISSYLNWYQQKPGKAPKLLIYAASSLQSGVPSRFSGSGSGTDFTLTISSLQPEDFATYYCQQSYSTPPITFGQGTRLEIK
notes: Variable domains only
B5: MAb16636 (antibody, V domains shown)
VH: QLQLQESGPGLVKPSETLSLICTVSGGSISSNNYYWGWIRQPPGKGLEWIGNLYGSGSTYYNPSLKSRVTISVDTSKNQFSLKLSFVTAADTAVYHCARWDTNGGAFDIWGQGTMVTVSS
VL: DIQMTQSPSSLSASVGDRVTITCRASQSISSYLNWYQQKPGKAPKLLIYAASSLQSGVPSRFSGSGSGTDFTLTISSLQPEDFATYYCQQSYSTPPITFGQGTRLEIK
notes: Variable domains only
B6: MAb16637 (antibody, V domains shown)
VH: QVQLVQSGAEVKKPGASVKVSCKASGYTFTSLGISWVRQAPGQGLEWMGWISAYSGNRDYAQKFQGRVTMTTDTSTSTAYMELRSLRSDDTAVYYCARSLRFDYWGQGTLVTVSS
VL: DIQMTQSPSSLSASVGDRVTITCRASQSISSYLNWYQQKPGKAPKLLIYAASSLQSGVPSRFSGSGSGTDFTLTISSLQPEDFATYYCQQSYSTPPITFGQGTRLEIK
notes: Variable domains only
B7: MAb16656 (antibody, V domains shown)
VH: EVQLVESGGGLVQPGRSLRLSCAASGFTLDDFAMHWVRQAPGKGLEWVSGISWNSGNIGYADSVKGRFTISRDNARNSLYLQMNSLRAEDTALYYCTSGYYLYYAMDVWGQGTTVTVSS
VL: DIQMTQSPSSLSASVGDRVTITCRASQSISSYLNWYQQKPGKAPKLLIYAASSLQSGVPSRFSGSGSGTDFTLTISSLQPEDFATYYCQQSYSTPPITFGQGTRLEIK
notes: Variable domains only
B8: MAb16659 (antibody, V domains shown)
VH: QVQLVQSGPEVKKPGSSVKVSCKASGGTIDRNEITWVRQAPGQGLEWMGVIIPILGEAHYERKFQGRLTITMDESTSTAYMELSNLRSEDTAVYYCARERAARGYLDYWGQGTLVTVSS
VL: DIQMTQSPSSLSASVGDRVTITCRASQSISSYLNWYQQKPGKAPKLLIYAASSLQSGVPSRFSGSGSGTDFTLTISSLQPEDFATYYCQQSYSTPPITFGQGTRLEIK
notes: Variable domains only
B9: MAb16662 (antibody, V domains shown)
VH: EVQLVESGGGLVQPGGSLRLSCTASGFTFSNYAIFWVRQAPGKGLEYVSGISNNGVTKYYADSVRDRFTISRDNSRNTVSIQMDSLRTEDMAVYYCARENWGSDDGFDIWGQGTMVTVSS
VL: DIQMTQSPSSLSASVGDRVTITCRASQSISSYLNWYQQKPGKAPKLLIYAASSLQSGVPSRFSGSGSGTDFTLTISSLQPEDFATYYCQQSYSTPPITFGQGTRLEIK
notes: Variable domains only
B10: MAb16664 (antibody, V domains shown)
VH: QVQLVQSGTEVKKPGSSVKVSCKASGGTFSTYPINWVRQAPGQGLEWMGGIIPIFGTASYAQKFQGRVAITTDESTSTAYMELNSLRSEDTAVYYCARERPNWGSNDYWGQGTLVTVSS
VL: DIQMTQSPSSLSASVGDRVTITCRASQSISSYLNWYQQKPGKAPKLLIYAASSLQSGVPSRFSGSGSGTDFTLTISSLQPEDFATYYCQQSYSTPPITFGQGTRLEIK
notes: Variable domains only
B11: MAb16665 (antibody, V domains shown)
VH: QVQLVESGGGVVQPGRSLRLACAASGFTFRSYGMHWVRQAPGKGLEWVAVIWYDGSNKYYTDSVKGRFTISRDNSKNTLYLQMNSLRAEDTAMYYCAIDKWATVTTYLFDYWGQGTLVTVSS
VL: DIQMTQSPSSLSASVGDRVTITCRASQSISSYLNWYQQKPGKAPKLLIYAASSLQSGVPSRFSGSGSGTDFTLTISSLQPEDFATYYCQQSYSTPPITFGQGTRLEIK
notes: Variable domains only
B12: MAb16669 (antibody, V domains shown)
VH: EVQLVESGGGLVQPGGSLRLSCAASGFTFSSYAMNWVRQAPGKGLEWVSAISGSGDSTYYTDSVKGRFTISRDNSKNTLYLQMNTLRAEDTAVYYCAKEEIVMLVGATPGWFDPWGQGTLVTVSS
VL: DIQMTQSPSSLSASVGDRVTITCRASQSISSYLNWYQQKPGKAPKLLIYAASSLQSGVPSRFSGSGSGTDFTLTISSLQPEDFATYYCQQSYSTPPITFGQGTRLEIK
notes: Variable domains only
B13: MAb16673 (antibody, V domains shown)
VH: EVQLVQSGAEVKKPGESLKISCKGSGYSFTSYWIDWVRQMPGKGLEWMGIIYPDDSDTRYSPSFQGQVTMSVDKSISTAYLQWSSLKASDTAIYYCARHERGIVEAGTDYYYYYGMDVWGQGTTVTVSS
VL: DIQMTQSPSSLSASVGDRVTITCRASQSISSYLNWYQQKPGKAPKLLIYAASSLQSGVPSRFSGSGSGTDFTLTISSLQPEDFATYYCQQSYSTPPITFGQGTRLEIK
notes: Variable domains only
B14: MAb16676 (antibody, V domains shown)
VH: QVQLVQSGAEVMKPGASVKVSCRASGYTFSSYDINWVRQAPGQGLEWMGWISTATGNTNYPQKVQGRVTMTTDTSTNTAYMELRSLRSDDTAVYYCTREGNSKGWLDPWGQGTLVTVSS
VL: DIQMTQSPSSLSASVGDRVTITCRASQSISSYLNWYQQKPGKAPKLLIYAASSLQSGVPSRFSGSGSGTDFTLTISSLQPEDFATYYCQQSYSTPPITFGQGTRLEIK
notes: Variable domains only
B15: MAb16682 (antibody, V domains shown)
VH: EVQLVESGGGLVQPGGSLRLSCAASGFTFSTYWMNWVRQAPGKGLEWVANIKEDGSEKYYVDSVKGRFTISRDNAKNSLYLQMNSLRAEDTAVYYCAREGFGVVTYIWGQGTMVTVSS
VL: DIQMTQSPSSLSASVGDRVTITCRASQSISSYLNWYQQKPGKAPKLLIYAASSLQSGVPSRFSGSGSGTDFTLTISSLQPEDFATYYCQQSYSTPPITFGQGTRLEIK
notes: Variable domains only
B16: MAb16683 (antibody, V domains shown)
VH: QVQLVESGGGLVKPGGSLRLSCAASGFTFSDYYMTWIRQTPGKGLDWVSYISSSGTNKYNADSVKGRFTISRDNAKNSLYLQMNSLRAEDTAVYYCVRDPPWGMDVWGQGTTVTVSS
VL: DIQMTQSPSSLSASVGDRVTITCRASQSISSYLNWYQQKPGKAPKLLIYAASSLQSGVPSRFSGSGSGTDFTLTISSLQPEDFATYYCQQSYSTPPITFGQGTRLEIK
notes: Variable domains only

molecular target: T1, full length (FL) human gp130 …; assay: FACS, 10 nM mAb, 293/Stat3-luc/GP130 2X sort cells
Source text: (§1) In order to assess cell binding by anti-GP130 antibodies of the invention two cell lines were generated. One cell line generated was HEK293 cells stably over-expressing full length (FL) human gp130 (amino acids 1-918 of accession # P40189 with leucine at position 2 changed to valine, a natural variant) along with a luciferase reporter (Stat3-luciferase, Stat3-luc, SA Bioscience, #CLS-6028L). The cells were sorted twice using flow cytometry for high expression of gp130. It is known hereafter as HEK293/Stat3-luc/gp130-2X Sort. IMR-32 cells (human Neuroblastoma, ATCC), were also evaluated for cell binding as these cells express gp130 endogenously and were used for bioassays. The cells used for binding were generated to stably express a luciferase reporter (Stat3-luciferase, Stat3-luc, SA Bioscience, #CLS-6028L), and are referred to hereafter as IMR-32/STAT3-Luc cells.
(§2) For the FACS analysis, 10 nM of the antibodies were used to stain 0.5×10^6 cells/well of each cell type at 4° C. in PBS (without calcium and magnesium) containing 2% FBS for 30 minutes. IMR-32/STAT3-luc cells were incubated with 1 mg/mL mouse IgG for 30 minutes at 4° C. to block Fc receptors prior to adding the antibodies. To test whether the anti-gp130 antibody binding is specific for gp130 on the IMR-32 cells, antibodies were added to IMR-32/Stat3-luc cells with or without being pre-bound to 1000 nM of recombinant protein of the ecto-domain of human gp130 fused to myc-myc-his tag (hgp130.mmh) for 30 minutes at 25° C. […] Cells were fixed using BD CytoFix™ (Becton Dickinson, #554655) and analyzed on an IQue® (Intellicyt®) Flow Cytometer. Unstained and secondary antibody alone controls were also tested for all cell lines. The results were analyzed using ForeCyt® (IntelliCyt®) software to determine the geometric means of fluorescence for viable cells.

First: B1
Second: B2
The “MFI - Normalized to Unstained Control” value of the first is lower: 94 for the first, 105 for the second.

First: B3
Second: B4
The “MFI - Normalized to Unstained Control” value of the first is lower: 91 for the first, 96 for the second.

Compared with B5, B6 is higher in “MFI - Normalized to Unstained Control” value: 92 for the first, 121 for the second.

Compared with B7, B8 is lower in “MFI - Normalized to Unstained Control” value: 132 for the first, 81 for the second.

Compared with B9, B10 is lower in “MFI - Normalized to Unstained Control” value: 49 for the first, 45 for the second.

Compared with B11, B12 is lower in “MFI - Normalized to Unstained Control” value: 55 for the first, 53 for the second.

First: B13
Second: B14
The “MFI - Normalized to Unstained Control” value of the first is higher: 107 for the first, 74 for the second.

First: B15
Second: B16
The “MFI - Normalized to Unstained Control” value of the first is higher: 80 for the first, 75 for the second.

molecular target: T2, human gp130 expressed endogenously on …; assay: FACS, 10 nM mAb, IMR-32/Stat3-luc cells, competitor 1 uM hGP130.mmh
Source text: as §1, §2

Going from B1 to B2, the “MFI - Normalized to Unstained Control” value rises from 6 to 8.

B3 and B4 are the same in “MFI - Normalized to Unstained Control” value: 7 for the first, 7 for the second.

B5 and B6 are the same in “MFI - Normalized to Unstained Control” value: 7 for the first, 7 for the second.

First: B7
Second: B8
The “MFI - Normalized to Unstained Control” value of the first is lower: 7 for the first, 8 for the second.

Going from B9 to B10, the “MFI - Normalized to Unstained Control” value rises from 6 to 8.

Compared with B11, B12 is lower in “MFI - Normalized to Unstained Control” value: 6 for the first, 5 for the second.

First: B13
Second: B14
The “MFI - Normalized to Unstained Control” value of the first is lower: 7 for the first, 8 for the second.

Going from B15 to B16, the “MFI - Normalized to Unstained Control” value falls from 8 to 7.

molecular target: T2, human gp130 expressed endogenously on …; assay: FACS, 10 nM mAb, IMR-32/Stat3-luc cells, no hGP130.mmh
Source text: as §1, §2

B1 and B2 are the same in “MFI - Normalized to Unstained Control” value: 7 for the first, 7 for the second.

Compared with B3, B4 is higher in “MFI - Normalized to Unstained Control” value: 5 for the first, 8 for the second.

First: B5
Second: B6
The “MFI - Normalized to Unstained Control” value of the first is lower: 8 for the first, 9 for the second.

First: B7
Second: B8
The “MFI - Normalized to Unstained Control” value of the first is higher: 12 for the first, 8 for the second.

First: B9
Second: B10
The “MFI - Normalized to Unstained Control” value of the first is lower: 5 for the first, 7 for the second.

Going from B11 to B12, the “MFI - Normalized to Unstained Control” value rises from 5 to 6.

Going from B13 to B14, the “MFI - Normalized to Unstained Control” value falls from 10 to 9.

First: B15
Second: B16
The “MFI - Normalized to Unstained Control” value of the first is lower: 6 for the first, 9 for the second.
